Measurements from FireProtDB (doi:10.1016/0301-4622(94)00150-i).
“And” between values parts separate entries of the source, which are not always exact repeats. Equal entries are not always repeated.

Details: Aspergillus flavus, Thermal, DSC, reversible: No, whole UniProt chain shown
[1] = pH 6.95, Sodium phosphate 50 mM
[2] = pH 7.45, Sodium phosphate 50 mM

B1: Uricase wild type, Q00511 (protein)
chain: MSAVKAARYGKDNVRVYKVHKDEKTGVQTVYEMTVCVLLEGEIETSYTKADNSVIVATDSIKNTIYITAKQNPVTPPELFGSILGTHFIEKYNHIHAAHVNIVCHRWTRMDIDGKPHPHSFIRDSEEKRNVQVDVVEGKGIDIKSSLSGLTVLKSTNSQFWGFLRDEYTTLKETWDRILSTDVDATWQWKNFSGLQEVRSHVPKFDATWATAREVTLKTFAEDNSASVQATMYKMAEQILARQQLIETVEYSLPNKHYFEIDLSWHKGLQNTGKNAEVFAPQSDPNGLIKCTVGRSSLKSKL
Tm [1]: 65 °C
unfolding enthalpy (calorimetric) [1]: 16.3 kcal/mol
unfolding enthalpy (calorimetric) (pH 7.2, Sodium phosphate 50 mM): 75.8 kcal/mol and 48.1 kcal/mol
unfolding enthalpy (calorimetric) (pH 7.25, Sodium phosphate 50 mM): 72 kcal/mol and 53.3 kcal/mol
Tm [2]: 68.4 °C
unfolding enthalpy (calorimetric) [2]: 57.9 kcal/mol
Tm (pH 7.8, Sodium phosphate 50 mM): 50.1 °C
unfolding enthalpy (calorimetric) (pH 7.8, Sodium phosphate 50 mM): 82.8 kcal/mol
unfolding enthalpy (calorimetric) (pH 8.5, Tris-HCl 50 mM): 78.9 kcal/mol and 29.7 kcal/mol
Tm (pH 8.8, Tris-HCl 50 mM): 49.9 °C
unfolding enthalpy (calorimetric) (pH 8.8, Tris-HCl 50 mM): 80.1 kcal/mol
unfolding enthalpy (calorimetric) (pH 9.05, Tris-HCl 50 mM): 76.8 kcal/mol and 26.8 kcal/mol
unfolding enthalpy (calorimetric) (pH 9.5, carbonate 50 mM): 82.3 kcal/mol and 59.1 kcal/mol
